Non-standard residues stand in square brackets, D forms with d. Phe(4-F) = N[C@@H](Cc1ccc(F)cc1)C(=O)O
Molecular target: CDK2/cyclin A complex (human, UniProt P24941 1-298; P20248 173-432)
Test: cell-based or functional assay

Row | CDK2/cyclin A kinase activity IC50 | Binder
1 | > 50 µM | Ac-RRLNF-NH2 [Ac-Arg-Arg-Leu-Asn-Phe-NH2]
2 | 50 µM | H-RRL[Phe(4-F)]-NH2 (SMILES CC(C)C[C@H](NC(=O)[C@H](CCCNC(=N)N)NC(=O)[C@@H](N)CCCNC(=N)N)C(=O)N[C@@H](Cc1ccc(F)cc1)C(N)=O) [H-Arg-Arg-Leu-(p-F-Phe)-NH2]
